Results published in patent publication US11162087B2, “Beta-glucosidase, enzyme composition including same, and method for manufacturing sugar solution using same” (RIKEN, priority 2017, dated 2021).

B1: Mutant 1: His-tagged polypeptide of SEQ ID NO: 6, 88% identity with SEQ ID NO: 1; tested as cell-free extract of transformed E. coli (protein)
chain: QIEGLINVMTLEEKVGQMAQLAIDLFIDVPTDTVIPEAARKGIIDYKIGSILNTYGGVSHSKEVWTYINAEFYKYTEETDLKIPILYGLDSIHGANFVNNFTSFPQQIGMAATFNPSLLKEGSRISAYETRAASVGWVFSPVMDLGLDPRWPRIWEGFGEDPYLSSQFGIASVHGFQGKDPNLIDEFHVAACAKHYLAYSNPFTGKDRTPAILSDIFIREYHLPSFKAAVDAGVASVMVNSGLINGIPTHMNHYLLTTVLKEELGFQGVIVTDWQDIENIHTRDHLAPTQKDAVKLAINAGIDMSMIPYNYDFIDYLIELVHEGEVSIDRINDAVRRILKMKAKMNLWDLPVTKSEDYPEFGSEAHANASYTAASESITLLKNENSTLPLAKNTKVLVVGPNSNSHRSLNGGWSYSWQGNAGVQYAVQYNTIYQAIQKVNGEENTVFSQGVRYIETGNYYEDEEVNISESVALARDVDYIILALGENTYTEKPGDLSDLEISQNQIDLAKALASTGKPIILVLNQGRPRIISRIEQLVSAILWIYWPGNYGGDALADILFGDVNPSGKLPVTYPRYSASLNTRIVSGGSDSFSEGLFIDYKHFDDANITPRYEFGYGLSYTKFNYSRLSVLSTAKSGPATGAVVPGGPSDLFQNVATVTVDIANSGQVTGAEVAQLYITYPSSAPRTPPKQLRGFAKLNLTPGQSGTATFNIRRRDLSYWDTASQKWVVPSGSFGISVGASSRDIRLTSTLSVA
modifications: His tag; amino acid sequence having 88% sequence identity with amino acid sequence of SEQ ID NO 1
notes: tested as cell-free extract of transformed E. coli
B2: Mutant 2: His-tagged polypeptide of SEQ ID NO: 8, 80% identity with SEQ ID NO: 1; tested as cell-free extract of transformed E. coli (protein)
chain: QIEGLINVMTLEEKVGQMAQLAIDLFIDVPTDTVIPEAARKGIIDYKIGSILNTYGGVSHSKEVWTYINAEFYKYTEETDLKIPILYGLDSIHGANFVNNFTSFPQQIGMAATFNPSLLKEGSRISAYETRAASVGWVFSPVMDLGLDPRWPRIWEGFGEDPYLSSQFGIASVHGFQGKDPNLIDEFHVAACAKHYLAYSNPFTGKDRTPAILSDIFIREYHLPSFKAAVDAGVASVMVNSGLINGIPTHMNHYLLTTVLKEELGFQGVIVTDWQDIENIHTRDHLAPTQKDAVKLAINAGIDMSMIPYNYDFIDYLIELVHEGEVSIDRINDAVRRILKMKAKMNLWDLPVTKSEDYPEFGSEAHANASYTAASESITLLKNENSTLPLAKNTKVLVVGPNSNSHRSLNGGWSYSWQGNAGVQYAVQYNTIYQAIQKVNGEENTVFSQGVRYIETGNYYEDEEVNISESVALARDVDYIILALGENTYTEKPGDLSDLEISQNQIDLAKALASTGKPIILVLNQGRPRIISRIEQLVSAILWIYWPGNYGGDALADILFGDVNPSGKLPVTYPRYSASL
modifications: His tag; amino acid sequence having 80% sequence identity with amino acid sequence of SEQ ID NO 1
notes: as for B1

What was measured:
[1] = β-glucosidase activity measurement with pNP-Glc; assay type: biochemical; details: cell-free extract, volume reduced to one-twelfth by ultrafilter membrane; detection limit 0.075
Description: In the present invention, “β-glucosidase” means an enzyme that catalyzes a reaction for hydrolysis degradation of a sugar β-glucoside bond. In the present invention, a method for measuring a β-glucosidase activity utilizes a reaction using p-nitrophenyl-β-D-glucopyranoside (pNP-Glc) as a substrate. Specifically, an enzyme liquid is added to a substrate solution prepared by dissolving pNP-Glc in 50 mM acetic acid-sodium acetate buffer solution (pH 5.0) and reacted at 30° C. for 10 minutes; and the reaction is stopped by well mixing with 2M sodium carbonate in an amount equivalent to one-tenth of a reaction system volume to measure an increase of the absorbance at 405 nm. When p-nitrophenol is released and the absorbance at 405 nm is increased after the above reaction, it is determined that the β-glucosidase activity is present.
10 μL of an enzyme diluted solution was added to and reacted with 90 μL of 50 mM acetic acid buffer containing 1 mM p-nitrophenyl-β-glucopyranoside (manufactured by Sigma-Aldrich Japan) at 30° C. for 10 minutes. Thereafter, 10 μL of 2M sodium carbonate was added and well mixed to stop the reaction, and an increase of absorbance at 405 nm was measured. The activity to release 1 μmol of p-nitrophenol per minute was defined as 1 U. For a blank, 10 μL of 2M sodium carbonate was added to and well mixed with 90 μL of 50 mM sodium acetate buffer containing 1 mM p-nitrophenyl-β-glucopyranoside, and thereafter, 10 μL of an enzyme diluted solution was added to cause a reaction at 30° C. for 30 minutes. Thereafter, an increase of absorbance at 405 nm was measured. At this time, the enzyme liquid was diluted so as not to exceed an absorbance at 405 nm of 1. In addition, a calibration curve was created based on absorbances measured by preparing p-nitrophenol solutions at concentrations of 0.1 mM, 0.2 mM, 1 mM and 2 mM; using 10 μL of them instead of an enzyme diluted solution; and adding and well mixing 10 μL of 2M sodium carbonate for color development.

[2] = Inhibitory action of glucose on the β-glucosidase activity; assay type: biochemical; details: 1 mM pNP-Glc, 30° C., 100 minutes
Description: The β-glucosidase derived from a protist of the genus Pseudotrichonympha of the present invention is preferably less likely to suffer from inhibition by glucose on the 3-glucosidase activity. Specifically, when the β-glucosidase activity in the absence of glucose is taken unity, the β-glucosidase activity under a condition of a glucose concentration of 8 g/L (or in the presence of 8 g/L glucose) is preferably 0.5 or more, more preferably 0.6 or more, more preferably 0.7 or more, more preferably 0.8 or more, more preferably 0.9 or more, more preferably 1.0 or more, more preferably 1.1 or more, more preferably 1.2 or more, more preferably 1.3 or more, and in particular preferably 1.4 or more. Further, in addition to the β-glucosidase activity under the condition of the glucose concentration of 8 g/L, when the β-glucosidase activity in the absence of glucose is taken as unity, the β-glucosidase activity under a condition of a glucose concentration of 20 g/L (or in the presence of 20 g/L glucose) is preferably 0.5 or more, more preferably 0.6 or more, and in particular preferably 0.7 or more. The method used herein for measuring the β-glucosidase activity is the same as the above-described method except that 8 g/L or 20 g/L of glucose is added at the time of measuring; and results obtained thereby are used.
An enzyme solution was added to a mixture solution containing 1 mM p-nitrophenyl-β-glucopyranoside (manufactured by Sigma-Aldrich Japan), 50 mM acetic acid buffer and 0, 4, 8 or 20 g/L glucose such that the total amount of the reaction solution became 100 μL, causing a reaction at 30° C. for 100 minutes. Thereafter, 10 μL of 2M sodium carbonate was added and well mixed to stop the reaction, and an increase of absorbance at 405 nm was measured. The activity to release 1 μmol of p-nitrophenol per minute was defined as 1 U. For a blank, 10 μL of 2M sodium carbonate was added to an amount, equivalent to that of the above mixture solution for the reaction solution before addition of the enzyme solution, of a mixture solution containing 1 mM p-nitrophenyl-β-glucopyranoside, 50 mM sodium acetate buffer and 0, 4, 8 or 20 g/L glucose, and mixed well; and then, the enzyme solution was added such that the total solution amount of the blank became 110 μL, causing a reaction at 30° C. for 30 minutes. Thereafter, an increase of absorbance at 405 nm was measured.
In accordance with Reference Example 8, the inhibitory action of glucose on the β-glucosidase activity was measured in enzyme compositions: containing the β-glucosidase and the genus Trichoderma filamentous fungus-derived cellulase prepared in Example 10; and the cell-free extract of β-glucosidase mutant gene transformed E. coli prepared in Example 5. For a comparative control, only the genus Trichoderma filamentous fungus-derived cellulase was used, and the inhibitory action of glucose on the β-glucosidase activity was measured in the same manner. […] That is, both of the enzyme composition containing the β-glucosidase of the present invention and the genus Trichoderma filamentous fungus-derived cellulase, and the cell-free extract of β-glucosidase mutant gene transformed E. coli were less likely to suffer from inhibition on the β-glucosidase activity by glucose, compared to only the genus Trichoderma filamentous fungus-derived cellulase, and the enzyme composition of Comparative Example 1 containing the genus Aspergillus filamentous fungus-derived β-glucosidase and the genus Trichoderma filamentous fungus-derived cellulase.

Row | Molecule | Increase of absorbance (405 nm) [1] | BGL activity (relative value) in the presence of 8 g/L glucose when BGL activity in the absence of glucose is taken as unity [2] | BGL activity (relative value) in the presence of 20 g/L glucose when BGL activity in the absence of glucose is taken as unity [2]
1 | B1 | 0.307 | 0.71 | 0.70
2 | B2 | 0.365 | 0.74 | 0.72
